The target of this assay is Thermoanaerobacter italicus TagA^FL∗ (residues M1-R244, I203E/L209Q/L212K/I216E), solubility-enhanced TagA (Thermoanaerobacter italicus). Nature of the assay: AUC.

pKd: −log10 of the molar value.

As for “Thermoanaerobacter italicus TagA^FL∗ (residues M1-R244, I203E/L209Q/L212K/I216E), solubility-enhanced TagA (enzyme)”, the pKd is 3.68 and the stoichiometry N was 2.

The values are drawn from paper PMC8784642.
